Reference: the supplement of paper PMC10567573
± gives the standard deviation.

Test: protein stability index of a GFP-peptide fusion (GPS, HEK-293T) (PSI 1-6); higher = more stable
Conditions: c terminus: a fixed tail appended
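Also: 24-mer peptide tiles fused after GFP, lentivirally expressed, FACS-sorted into six equal bins by GFP/DsRed ratio, decoded by Illumina sequencing, PSI is the read-weighted mean bin number.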

Sequence	protein stability index (treatment: DMSO)	protein stability index (treatment: MLN4924 1 uM, 8 h)
VTSNGSIGRDPPAETQPQNPPAQP [CLPTM1]	5.41 ± 0.27	5.41 ± 0.15
VVETINAAIGVTTSPVLPSLIQLL [HACD3]	2.89 ± 0.74	2.81 ± 0.4
VVLLQGAELLLAARLLGALAARSG [TSPAN10]	3.52 ± 0.57	2.76 ± 0.59
VVLSDGPALHPAHAPQISYTGPSS [NCK2]	3.13 ± 0.37	3.38 ± 0.17
VWVTHEEMETLETSTKTDSEEGSW [PPFIA4]	4.19 ± 0.29	4.68 ± 0.22
WDLRMKLHDRGAQVIHPQEFRRWR [DNAAF3]	2.77 ± 0.35	3.02 ± 0.28
WGYIRYSGQYRELGGAIDFGAAYV [ATL3]	2.56 ± 0.68	2.53 ± 0.69
WIKEEAAERYLYFPNWAMALLITL [SLC6A17]	2.67 ± 0.79	2.81 ± 0.57
WKYALDMQQSNLDPLSPMTASSLL [FEM1C]	2.68 ± 0.19	2.84 ± 0.42
WMEVLVLGVAQRSLPLQDELAFAE [ESRRA]	3.47 ± 0.63	2.64 ± 0.97
WRKRFRPREHHGRGGMLSASAETL [PPFIA4]	3.15 ± 0.22	3.26 ± 0.056
WSLYPSDSQVSEEVKTRHSEKSQR [CHGB]	4.78 ± 0.17	4.8 ± 0.19
WYVCRTQGVEGDHCVTSDPATSPL [TRIM35]	3.15 ± 0.18	2.98 ± 0.29
YADHNYGARPPPTPPASPPPSVLI [KMT2E]	3.06 ± 0.32	3.34 ± 0.4
YALRAYLGYQAVPSGSSGSLSTSS [CEBPB]	2.23 ± 0.28	2.36 ± 0.3
YDTFHTVADMMYFCQMLAVVETIN [HACD3]	3.08 ± 0.35	3.17 ± 0.64
YEEEFDYETESETESEIESETDFE [GNAS]	5.12 ± 0.24	5.11 ± 0.16
YETKYVVLSYLGLLSQEKLQEQHL [BCL2L13]	2.63 ± 0.49	2.62 ± 0.46

Sequence	protein stability index (treatment: DMSO)	protein stability index (treatment: MLN4924 1 uM, 8 h)
YFSQVPVLASFILDDGEIDEIRWK [IQUB]	2.25 ± 0.72	2.22 ± 0.28
YGRFIRWLNKEKGIFKIEDSAQVA [SPDEF]	2.37 ± 0.35	2.48 ± 0.2
YGSIHGPTDYQVNIQIIEYEKKQT [BTBD1]	2.96 ± 0.48	3.28 ± 0.33
YHRRHNPKTNEDFEFLYNALEFWR [IQUB]	1.86 ± 0.36	2.61 ± 0.82
YIIQQGGWGTVFSLESEEEEYPGI [BCL2L13]	2.46 ± 0.36	2.9 ± 0.36
YLQDHEKKLRLVFKSLDKKNDGRI [SLC25A25]	3.3 ± 0.13	3.43 ± 0.41
YLRKGRGETRICKIYDSPCLPEAE [RAD51]	3.65 ± 0.22	3.83 ± 0.28
YNMAPSALDSADLPPPSALKKGSK [NFE2L1]	5.26 ± 0.16	5.13 ± 0.3
YPDQSPSEDWTMEERFRPLTFHGL [CLCN6]	3.23 ± 0.18	3.37 ± 0.18
YRCIREARYTMPSSLLAPAKHLIA [PLK2]	2.56 ± 0.54	2.48 ± 0.18
YRLGYFDDALEDFKKVLDLNPGFQ [TTC32]	2.59 ± 0.2	2.41 ± 0.41
YSAPPGDPLSTNYSLAPNTPINQN [NFE2L1]	4.48 ± 0.27	4.54 ± 0.2
YSGTFALIGAAAFLGGVVRMTISL [CLCN6]	3.78 ± 0.31	2.86 ± 0.15
YSIISLLLKDKVRERIQILKTSEV [PTPN9]	2.9 ± 1.2	2.44 ± 0.31
YSPEALASIQNHVRKREAPAPEAE [EFHC1]	4.92 ± 0.19	5.06 ± 0.2
YVDSPALTNIWMARTCAKQNINAP [C22orf31]	3 ± 0.59	2.36 ± 0.24
YVERKNSLKKGSLVKNLKDTLGLG [NCK2]	2.85 ± 0.34	3.13 ± 0.28
YYLCGFCPAELFTNTRSDLDVFGR [LUC7L3]	2.26 ± 0.25	2.04 ± 0.21
